From PMC2680285 come the findings set out here.

Several values for one entry are separate records, joined by “and”; a condition that tells them apart may be missing. Identical values can stand only once.

The target of the test is T1, wild-type GADD45α (growth arrest- and DNA damage-induced gene 45α), C-terminally myc-tagged (human), P24522.
T1 chain: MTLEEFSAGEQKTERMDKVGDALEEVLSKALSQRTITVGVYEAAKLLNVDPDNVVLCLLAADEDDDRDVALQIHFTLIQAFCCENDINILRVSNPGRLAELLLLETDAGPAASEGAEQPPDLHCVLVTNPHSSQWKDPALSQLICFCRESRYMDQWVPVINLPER
The test can be described thus: native gel or EMSA. As to conditions: remark: other sources report otherwise. (A gel shift assay detects complexes by their altered migration in electrophoresis.)

B1: wild-type GADD45α (growth arrest- and DNA damage-induced gene 45α), C-terminally myc-tagged, P24522 1-165 (natural protein)
chain: T1 chain
As usually defined, the stoichiometry N is the number of molecules, sites or subunits per partner or assembly. Turning to B1, the stoichiometry N is 3 and 4.
